According to the supplement of paper PMC9170038:

Tested on: K4 kissing-loop RNA reporter
Assay: apparent KD of K4 kissing-loop reporter; higher = weaker reporter binding
Details: Eterna round: R107
Protocol: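 RNA-MaP round R107: designed RNA switches with theophylline, tryptophan, arginine or FMN aptamers are transcribed on-chip within common flanks. They are titrated with a labelled K4 kissing-loop RNA reporter in RNA-MaP buffer (100 mM Tris pH 7.5, 80 mM KCl, 4 mM MgCl2), without ligand or with the indicated ligand. Median apparent KD per design.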

[1] = input ligand: theophylline 20 uM
[2] = input ligand: tryptophan 2.4 mM
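Also: bound reporter read as fluorescence of individual clusters on recovered sequencing chips by microscopy, with normalized cluster intensities fitted with a binding model.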

| Sequence | apparent KD of K4 kissing-loop reporter (input ligand: FMN 200 uM) | apparent KD of K4 kissing-loop reporter (input ligand: arginine 13.2 mM) | apparent KD of K4 kissing-loop reporter (input ligand: none) | apparent KD of K4 kissing-loop reporter [1] | apparent KD of K4 kissing-loop reporter [2] |
| --- | --- | --- | --- | --- | --- |
| GGUAGCAUGGCGGCCGCCACUGGAGAGUGAUGUUCUCCACUAGGUUACAACGCCGGACAGUCCACCAGGACCGGGCCAUGCUACC | 140 nM | 106 nM | 131 nM | 129 nM | 436 nM |
| GGUAGCGCCAGAGAUACCAGUCAUAUCGCUCUGGAGUGAUGUUCCGGAACGUGCGGAGAAGACCCUUGGCAGCUCAUGACGGUAU [Exclusion Theophylline B GF 3] | 219 nM | 175 nM | 189 nM | 227 nM | 171 nM |
| GGUAGGGCAGCUGCGGAAACGCAGCAUAUCGAGGAUAUCGGGAAACCGAGAAGGCGAGUAGUGAUGUUACUGGUUUAGCCCUACC | 444 nM | 167 nM | 191 nM | 196 nM | 173 nM |
| GGUGCUGUCUGUGCCGCCCUCCUCGUUCCUCGAGGACCGGUACGGCCGCCACUCGAGUGAUGUUCGGGUAGCGAUCCCUGCUAGC [Bdazzled - #17 Exc. Tryptophan A] | 221 nM | 176 nM | 207 nM | 191 nM | 204 nM |
| GGUUUCUGAAGUGAUGUUUCAGGAUGACACAAGGAUAUAUAUGGCGAUAGAAGGUGUGCGUCGCAUGACGAACGACGUCAGCUUC [theeternabot_exclusion_KL_FMN_A_37] | 94.8 nM | 80.9 nM | 120 nM | 123 nM | 93 nM |
| GUACCUUGGAAACAAGGACCGCUAACCGAAGGAGCGCGUGAAAACGCAGGUAGGUCGCGGUAGCGGAGUGAUGUUCCGCGAGAGG [Excluson Arginine A GF 14] | 166 nM | 235 nM | 196 nM | 268 nM | 165 nM |
| GUAGACGUACCUUCAGUGAUGUUGAAGGAUACCAGAUGUUAUCACAUCCCUUGGCAGCCUUGGGAUAACAGUGAGUCGGAAUAUG [Essoaran] | 170 nM | 142 nM | 184 nM | 159 nM | 168 nM |
| GUAGAUAGGCAACAUCCCUAGUCUACAGACUAGGAUAUCAGGAAACUGAGAAGGAGUCUCCUUGCAGUGAUGUUGCAAGAAUAAU [[F]''-[K]'-[F]'-[F1]-[F2]-[K1]-[K2]_Design5] | 185 nM | 181 nM | 200 nM | 83.6 nM | 161 nM |
| GUAGAUAGGCUACAUCUCUAGUCUAUAGACUAGGAUAUCAGGAAACUGAGAAGGAGUCUCAUUGGAGUGAUGUUCCAAGAAUAAU [KL-SSFMN-A15] | 120 nM | 115 nM | 114 nM | 133 nM | 85.1 nM |
| GUAGGAUGAGGAGGAGGAUGAAUUACUGAAGGAGCGCAGAGAAAUGCAGGUAGGUCGCGGUAAAGAAGUAUAGUGAUGUUAUAUC [#09 K4 Arginine A Same State] | 775 nM | 308 nM | 657 nM | 526 nM | 598 nM |
| GUAUCGCUAGGAGGAUAUUUCAAAUAAUAAAUAAAUGGAUAUACGGAGUGAUGUUCCGAUUUACGGAAAGAAGGCCUAGUGAUAC [FMN B 1] | 136 nM | 179 nM | 194 nM | 190 nM | 171 nM |
| GUAUCGCUAGGAGGAUAUUUCAAAUAAUAAAUAAAUGGAUAUUCGGAGUGAUGUUCCGAUUUACGGAAAGAAGGCCUAGUGAUAC [FMN B 2] | 135 nM | 143 nM | 157 nM | 137 nM | 150 nM |
| GUCGGGACUCGAGGAUAUCAGUGGAGGCCAGUGAUGUUGGCCGUCCCGGUAGUUAAAAUUUUACCCUGAGAAGGCGAUUUCUGUC [Veceinusqu] | 142 nM | 128 nM | 133 nM | 131 nM | 138 nM |
| GUGCAGUGAUGUUGCACGAGGAAAGACGAUACCAGCCGUAAAUAAGGCCCUUGGCAGCGUGGGCUAGCAUAAAGUACGCUAGUCU [Mara] | 111 nM | 115 nM | 109 nM | 94 nM | 97.1 nM |
| GUGCGGCUAGUGAUGUUGGUUGCGUGGGAAGGAGCGCAGAAACAUGCAGGUAGGUCGCCCACACCUCUGAAAGAAGGUUAAUUCA [Biistian] | 218 nM | 140 nM | 203 nM | 231 nM | 207 nM |
| GUGCGGUGGAGGUUACCGCUACUCUGAGAAGGAGCGCAGAUGACUGCAGGUAGGUCGCUUAGAGCUUGCAGUGAUGUUGCAAGUU [Anquatbiat] | 199 nM | 147 nM | 159 nM | 132 nM | 177 nM |
| GUUACGCAUGGAAGGAGCGCAGGCUCAACAAGUAGCUCAGUGAUGUUGAGCAUAUUAAUUCUGCAGGUAGGUCGCCAUGUGUAAC [Ex Arginine B K4 26] | 787 nM | 471 nM | 612 nM | 802 nM | 646 nM |
| GUUACGCAUGGAAGGAGCGCUCUCAUACUUAAUAACACAGUGAUGUUGUGAAUUUGUAUAAAGCAGGUAGGUCGCCAUGUGUAAC [Ex Arginine B K4 7] | 417 nM | 323 nM | 424 nM | 379 nM | 346 nM |
| GUUACGCAUGGAAGGAGCGCUCUCCGGUUGAUCGACACAGUGAUGUUGUGGUUCUACCGUAAGCAGGUAGGUCGCCAUGUGUAAC [Ex Arginine B K4 14] | 730 nM | 449 nM | 936 nM | 966 nM | 828 nM |
| UAACUUGCAGUGAUGUUGCAAGAACUGGAUACCAGCAUGGAAACAUGCCCUUGGCAGCCAGAAGCUGGCUGCUUGUAAUGUCAGC [Design6] | 162 nM | 158 nM | 170 nM | 131 nM | 138 nM |
| UAAGAAUAACAUGCAGUGAUGUUGCAUGUACGAGGACCGGUACGGCCGCCACUCGAGUCCUCGAACAUGCACCGAGGAAUAACAA [(H,1)-(H,2)-(Trp1)-(Trp2)-(T)'-(H)'-(T)''] | 201 nM | 118 nM | 116 nM | 161 nM | 402 nM |
| UAAGAAUAAGUAGCAGUGAUGUUGCUACUGCGAGGACCGGUACGGCCGCCACUCGAGUCCUCGAAGCGUCACUGAACGAGGAAUA [whbob_SS_Tryp_A_m13] | 319 nM | 283 nM | 328 nM | 433 nM | 187 nM |

| Sequence | apparent KD of K4 kissing-loop reporter (input ligand: FMN 200 uM) | apparent KD of K4 kissing-loop reporter (input ligand: arginine 13.2 mM) | apparent KD of K4 kissing-loop reporter (input ligand: none) | apparent KD of K4 kissing-loop reporter [1] | apparent KD of K4 kissing-loop reporter [2] |
| --- | --- | --- | --- | --- | --- |
| UAAGUCUUAUCGGCCGCCACUCAUUACACGAAGUGAUGUUUCGGGUUUUAGACAAAUAAUUUUUGGAGGACCGGGAUACGAGAAA [theeternabot_sameState_KL_Trp_B_49] | 162 nM | 113 nM | 139 nM | 148 nM | 114 nM |
| UAAUAAAUUCCAGCGAUAUCGCUCUUCGAAGGAGCGGGCGAAAGUCCAGGUAGGUCGCGGAGAGUGAUGUUCUUUGCGGCGCUGG [whbob_Ex_Arginine_A_2t134] | 408 nM | 315 nM | 400 nM | 407 nM | 244 nM |
| UAAUCCUAGUGAUAAUAAUCAAGUGGUGGGCGAGGACCGGUACGGCCGCCACUCGAAAAUGCAGUGAUGUUGUAAUCCGGAUAAU [Exclusion - Tryptophan A (Freestyle 5)] | 798 nM | 874 nM | 1080 nM | 872 nM | 450 nM |
| UAAUCCUAGUGAUAAUAAUCAAGUGGUGGGCGAGGACCGGUACGGCCGCCACUCGAAUAUGCAGUGAUGUUGUAAUCCGGAUAAU [Exclusion - Tryptophan A (Freestyle 6)] | 667 nM | 926 nM | 919 nM | 894 nM | 594 nM |
| UAAUGCAUGACGGCCGCCACUAGUACUGGAGUGAUGUUGUGGUACGGCGGCAGUAUAGGGUGGACUAGGACCGGGUCAUGCAUAU [KL-XTryp-B11 #analogue] | 598 nM | 443 nM | 597 nM | 547 nM | 567 nM |
| UAAUUUAUGUCUUUAAUAUAAUUUUCAGAUACCAGUGAUUAUUAACACCCUUGGCAGCUGUAUAGAGUGAUGUUCUUAUGCUUAA [JR_ExcTheophyA_Sub009] | 213 nM | 314 nM | 237 nM | 321 nM | 156 nM |
| UAAUUUAUUUCUUUUAUAUAAUAAUCAGAUACCAGUGAUUAAUGUCACCCUUGGCAGCUGUAUAGAGUGAUGUUCUAAUGCUUAA [JR_SSTheophyA_Sub022] | 176 nM | 169 nM | 142 nM | 233 nM | 147 nM |
| UACAUAUCACUUUUUCUACAAUUAUUUAGUCAGGAUAUCGAUUAAACGAGAAGGGACAUUAUCAAGUGAUGUUUGAUAAUUCAAA [JR_Nu_SSFMNA_Sub028] | 156 nM | 129 nM | 118 nM | 159 nM | 124 nM |
| UACCUAUUAUUAACACUAUAUACAACUGAAGGAGCGACAAUAAAGUCAGGUAGGUCGCAGAAUUAAUGAGUGAUGUUCAUUUUUA [JR_ExcArginiA_Sub014] | 84.3 nM | 136 nM | 95.3 nM | 110 nM | 59.7 nM |
| UAGUCAUACAGAGGAUAUCGUAUGAGUGAUGUUCAUAUGCGUACAUCAACUUGAUGUACACCUAGACGAGAAGGCUGUAUGACUA [FMB B SS t6a] | 172 nM | 199 nM | 252 nM | 212 nM | 227 nM |
| UAGUCCUAGUGAUCCUUAUCAAGUGGUGGGCGAGGACCGGUACGGCCGCCACUCGAAUAUGCAGUGAUGUUGUAAUCCGGAUAAU [Exclusion - Tryptophan A (Freestyle 10)] | 596 nM | 511 nM | 727 nM | 846 nM | 417 nM |
| UAUGUACACUGGUAGUGGUACAUCGAGGAAGGAGCGUGCGCAGGCACAGGUAGGUCGCCUCAGCGCACGAGUGAUGUUCGUGGGC [Ceaqu] | 308 nM | 205 nM | 358 nM | 262 nM | 288 nM |
| UAUUCUGUUCGAAAGAACGGAAUUUCGGAAGGAGCGCGAGAAAUCGCAGGUAGGUCGCCGAAAUUAUUAGGUAGUGAUGUUACCU [Arginine A K4 6] | 125 nM | 99.8 nM | 120 nM | 101 nM | 115 nM |
| UCACGUGCCAGUGAUGUUGGCGUACGUGAUACCAGACGAAUAAAAGUCCCUUGGCAGCACAAAUAUGCCAAGUUAGAUGUAUGAU [Exclusion Theophylline A GF 2] | 125 nM | 122 nM | 121 nM | 116 nM | 116 nM |
| UCCCGAGUGAUGUUUGGCUGAUGGAGUGAUACCAGUCCCUAGACUGACCCUUGGCAGCACGACUUGUACCAGGCGGAUCACCCUG [theeternabot_exclusion_KL_Theo_A_5] | 479 nM | 260 nM | 423 nM | 431 nM | 366 nM |
| UCCUAGGCUCGAAAGAGCCUAGGAUUGACUCAGGAUAUCCGGAAACGGAGAAGGGAGUCACUAGUGAUGUUAGGGAUUCCCUAUU | 312 nM | 91.2 nM | 100 nM | 85.9 nM | 94.2 nM |
| UCCUAUACCCUUCCCGGACGCCGUGGAGAUACCAGCCACGUAGCGGGCCCUUGGCAGCUCGAGUGAUGUUCGAGAUCGUCAGGAU [Veteve] | 136 nM | 124 nM | 127 nM | 128 nM | 135 nM |
| UCCUGCAAUCCGCCACGAAAGUGGAUGGAUACCAGAGUCGAAAGACUCCCUUGGCAGCCAGUGAUGUUGGAAGCAGGUAAAUAAA | 819 nM | 645 nM | 715 nM | 656 nM | 596 nM |
| UCCUGCAAUCUGCCACGAAAGUGGAUUGAUACCAGAGUCGAAAGACUCCCUUGGCAGCGAGUGAUGUUCGUAGCAGGUAAAUAAA [MatMod 6 - Jieux - Exclusion - Theophylline A] | 203 nM | 221 nM | 206 nM | 218 nM | 185 nM |
| UCCUGCAAUCUGCCACGAAAGUGGAUUGAUACCAGAGUCGAAAGACUCCCUUGGCAGCGAGUGAUGUUCGUUGCAGGUAAAUAAA [MatMod 7 - Jieux - Exclusion - Theophylline A] | 181 nM | 178 nM | 175 nM | 170 nM | 149 nM |
| UCGAAAUGCGUCUCCUAGUUUCUCCGGGAAGGAGCGUGGAUAACCGCAGGUAGGUCGCCCGGGAGCCGGACCAGUGAUGUUGGUC [Exclusion Arginine A Gf 30] | 181 nM | 211 nM | 197 nM | 207 nM | 164 nM |
